This note sets out measurements from publication PMC4730607, “DNA-binding sequence specificity of DUX4”.

Common to all, as to details: protein: recombinant; tags: N-terminal His6 removed by TEV (first construct); His-SUMO fusion (later construct); blunt
In data set [1] the target is T1, DUX4 DNA-binding domain (DUX4-HD, both homeodomains) (UniProt Q9UBX2 19-152). The data set can be described thus: competition; vs FAM-CT; Direct EMSA: 10 uL 100 uM probe + 20 uL 250 uM protein (protein stock in 500 mM NaCl, 20 mM Tris-Cl pH 7.4), 1 h on ice, 3% agarose, EtBr; competition: 10 uL 100 uM competitor, 2 uL 125 uM protein (50% glycerol, 250 mM NaCl, 10 mM Tris-Cl pH 7.4), 2 uL 100 uM FAM-CT, 30 uL total, 1 h on ice. In general terms: In EMSA bound probe runs differently from free probe, usually more slowly.
T1 sequence (Q9UBX2 19-152): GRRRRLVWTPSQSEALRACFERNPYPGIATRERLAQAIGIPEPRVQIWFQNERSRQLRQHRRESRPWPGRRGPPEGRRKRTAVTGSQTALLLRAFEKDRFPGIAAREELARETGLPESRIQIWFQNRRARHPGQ

The target of data set [2] is T1, DUX4 DNA-binding domain (DUX4-HD, both …). The data set can be described thus: EMSA; excess protein; Direct EMSA: 10 uL 100 uM probe + 20 uL 250 uM protein (protein stock in 500 mM NaCl, 20 mM Tris-Cl pH 7.4), 1 h on ice, 3% agarose, EtBr; competition: 10 uL 100 uM competitor, 2 uL 125 uM protein (50% glycerol, 250 mM NaCl, 10 mM Tris-Cl pH 7.4), 2 uL 100 uM FAM-CT, 30 uL total, 1 h on ice.

The target is the same in data set [3]. Description: competition; vs FAM-CT; CT competed best; Direct EMSA: 10 uL 100 uM probe + 20 uL 250 uM protein (protein stock in 500 mM NaCl, 20 mM Tris-Cl pH 7.4), 1 h on ice, 3% agarose, EtBr; competition: 10 uL 100 uM competitor, 2 uL 125 uM protein (50% glycerol, 250 mM NaCl, 10 mM Tris-Cl pH 7.4), 2 uL 100 uM FAM-CT, 30 uL total, 1 h on ice.

B1: DUX4(mut) (dsDNA)
DNA 1: GGCAGTCGTGAATAATCAAGTCGGC
DNA 2: GCCGACTTGATTATTCACGACTGCC
Turning to B1, the binding result in data set [1] was “no binding”.

B2: MALR (dsDNA)
DNA 1: GGCAGTCTAATTGAATCAAGTCGGC
DNA 2: GCCGACTTGATTCAATTAGACTGCC
As for B2, the binding result in data set [2] is listed as “binds”.

B3: DUX4(TT) (dsDNA)
DNA 1: GGCAGTCTAATTTAATCAAGTCGGC
DNA 2: GCCGACTTGATTAAATTAGACTGCC
On to B3, for which the binding result in data set [1] is on record as “binds”.

B4: DUX4(half) (dsDNA)
DNA 1: GGCAGTCCAGCGTAATCAAGTCGGC
DNA 2: GCCGACTTGATTACGCTGGACTGCC
For B4, in data set [2], the binding result is “no binding”.

B5: SELEX2 (dsDNA)
DNA 1: GGCAGTCTAATTCAATCCAGTCGGC
DNA 2: GCCGACTGGATTGAATTAGACTGCC
Take B5: the binding result in data set [3] was “binds”.

B6: DUX4(CC) (dsDNA)
DNA 1: GGCAGTCTAATCCAATCAAGTCGGC
DNA 2: GCCGACTTGATTGGATTAGACTGCC
In the case of B6, the binding result in data set [1] is “binds”.

B7: DUX4(TC) (dsDNA)
DNA 1: GGCAGTCTAATTCAATCAAGTCGGC
DNA 2: GCCGACTTGATTGAATTAGACTGCC
Consider B7, for which, in data set [1], the binding result is “binds”.

B8: Pitx1-25 (dsDNA)
DNA 1: GGCAGTCTTCTAATTAGTAGTCGGC
DNA 2: GCCGACTACTAATTAGAAGACTGCC
For the molecule B8, in data set [2], the binding result is reported as “no binding”.

B9: SELEX4 (dsDNA)
DNA 1: GGCAGTCTAATGTTTTATAGTCGGC
DNA 2: GCCGACTATAAAACATTAGACTGCC
Turning to B9, in data set [2], the binding result is on record as “no binding”.
